Experimental data: paper PMC5454376 (Nature Communications, 2017)
Where no end group is shown, it is not given here.

Columns and labels:
Conditions in all cases: both partners purified
[1] = molecular target: T1, Full-length human Gαi3, untagged (NMR sample) (human, UniProt P08754 1-354); assay: fluorescence polarisation; fluorescein-labelled peptide 0.025 μM, G protein 0–8 μM; room temperature; 50 mM Tris-HCl pH 7.4, 100 mM NaCl, 0.4% NP-40, 10 mM MgCl2, 5 mM EDTA, 2 mM DTT, 30 μM GDP; one site binding hyperbola
T1 construct: Uniformly 2H,13C,15N labelled for NMR; also called Gαi3-GDP; 2H,13C,15N-Gαi3; source: E. coli BL21 Rosetta, pET24d(+), purified (His-Trap, tag cleavage, GST-Trap, Superdex 200); not shown: His tag, N-terminal, cleaved

[2] = molecular target: T2, Human His-Gαi3 WT (human, UniProt P08754 1-354); assay: as above
T2 construct: Gαi3, human, UniProt P08754, full length; same plasmid as for the NMR studies; also called His-tagged Gαi3; tagged protein; source: E. coli, pET24d(+), purified as uncleaved His-tagged protein (HisPur Cobalt Resin); not shown: His tag, N-terminal, kept

[3] = molecular target: T3, Human His-Gαi3 S252A (human, UniProt P08754 1-354, S252 mutated to A); assay: as above
T3 construct: Gαi3, human, UniProt P08754, full length; also called S252 mutated to A; source: E. coli, pET24d(+), purified as uncleaved His-tagged protein (HisPur Cobalt Resin); not shown: His tag, N-terminal, kept

[4] = molecular target: T4, Human His-Gαi3 N256A (human, UniProt P08754 1-354, N256 mutated to A); assay: as above
T4 construct: Gαi3, human, UniProt P08754, full length; also called N256 mutated to A; source: E. coli, pET24d(+), purified as uncleaved His-tagged protein (HisPur Cobalt Resin); not shown: His tag, N-terminal, kept

[5] = molecular target: T5, Human His-Gαi3 ΔC9 (lacking the last nine residues) (human, UniProt P08754 1-345); assay: as above
T5 construct: Gαi3, human, UniProt P08754, lacking the last nine residues; source: E. coli, pET24d(+), purified as uncleaved His-tagged protein (HisPur Cobalt Resin); not shown: His tag, N-terminal, kept

[6] = molecular target: T6, Human His-Gαi3 W211A (human, UniProt P08754 1-354, W211A); assay: as above
T6 construct: Gαi3, human, UniProt P08754, full length; source: E. coli, pET24d(+), purified as uncleaved His-tagged protein (HisPur Cobalt Resin); not shown: His tag, N-terminal, kept

[7] = molecular target: T2, Human His-Gαi3 WT; assay: pull-down; 10 μg GST-GIV or GST-DAPLE on glutathione agarose beads (~1.25 μM); His-Gαi3 WT or mutants ~1 μM in solution; 4 h, 4 °C; 50 mM Tris-HCl pH 7.4, 100 mM NaCl, 0.4% NP-40, 10 mM MgCl2, 5 mM EDTA, 2 mM DTT, 30 μM GDP; Coomassie blue
[8] = molecular target: T3, Human His-Gαi3 S252A; assay: as above
[9] = molecular target: T4, Human His-Gαi3 N256A; assay: as above
[10] = molecular target: T5, Human His-Gαi3 ΔC9 (lacking the last …); assay: as above
[11] = molecular target: T7, His-tagged rat Gαi3 (rat, UniProt P08753 1-354); assay: pull-down; as a1 but His-Gαi3 reloaded with GDP (Gαi3-[GDP]) and buffer supplemented with 100 μM GDP
T7 construct: Same protein in three nucleotide states (nucleotide-free, GDP, GDP/AlF4−); the states are told apart by the assays a1-a3; also called His-Gαi3; Gαi3-[GDP]; source: E. coli BL21(DE3), pET28b, purified (Superdex S75); nucleotide-depleted and reloaded or not with GDP or GDP/AlF4−

[12] = molecular target: T1, Full-length human Gαi3, untagged (NMR …); assay: NMR titration; 1H–15N TROSY and HNCO of 32 μM 2H,13C,15N-Gαi3 titrated with GIV peptide 1,671–1,696 (molar ratios 1:0 to 1:5); 30 °C; 10 mM HEPES pH 7.0, 10 mM MgCl2, 5 mM DTT, GDP; up to 3% DMSO
[13] = molecular target: T1, Full-length human Gαi3, untagged (NMR …); assay: NMR titration; 1H–15N TROSY and HNCO of 100 μM 2H,13C,15N-Gαi3 free and with a twofold molar excess of His-GIV-CT; 30 °C; 10 mM HEPES pH 7.0, 10 mM MgCl2, 5 mM DTT, threefold molar excess of GDP

Measured: binding result

T4 sequence (P08754 whole entry N256A): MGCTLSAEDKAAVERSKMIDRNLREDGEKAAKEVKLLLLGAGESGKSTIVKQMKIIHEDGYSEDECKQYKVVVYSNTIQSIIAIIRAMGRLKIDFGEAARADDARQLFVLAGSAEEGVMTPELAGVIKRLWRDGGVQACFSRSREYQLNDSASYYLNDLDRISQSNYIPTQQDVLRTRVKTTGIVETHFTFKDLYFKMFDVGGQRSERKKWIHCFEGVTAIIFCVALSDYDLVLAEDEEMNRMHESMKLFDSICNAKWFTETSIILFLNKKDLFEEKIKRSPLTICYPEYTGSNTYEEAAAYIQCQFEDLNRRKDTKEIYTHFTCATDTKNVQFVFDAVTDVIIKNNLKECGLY
T3 sequence (P08754 whole entry S252A): as the sequence (P08754 whole entry N256A) above, with S252A, A256N counted along it
T2 sequence (P08754 whole entry): as the sequence (P08754 whole entry N256A) above, with A256N counted along it
T1 sequence (P08754 whole entry): as the sequence (P08754 whole entry N256A) above, with A256N counted along it
T5 sequence (P08754 1-345, stated change not applied): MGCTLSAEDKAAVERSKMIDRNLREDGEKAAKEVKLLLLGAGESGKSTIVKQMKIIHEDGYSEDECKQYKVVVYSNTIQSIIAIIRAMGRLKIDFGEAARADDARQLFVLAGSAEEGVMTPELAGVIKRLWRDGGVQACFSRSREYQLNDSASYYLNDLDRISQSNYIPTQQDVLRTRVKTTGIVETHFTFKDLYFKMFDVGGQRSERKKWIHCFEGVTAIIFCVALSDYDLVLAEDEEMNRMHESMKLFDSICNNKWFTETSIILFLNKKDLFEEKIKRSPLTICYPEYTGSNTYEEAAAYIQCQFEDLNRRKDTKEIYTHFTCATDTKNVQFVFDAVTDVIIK
T7 sequence (P08753 whole entry): as the sequence (P08754 whole entry N256A) above, with P121S, S165T, D193E, A256N, E261D, I319V counted along it
T6 sequence (P08754 whole entry W211A): as the sequence (P08754 whole entry N256A) above, with W211A, A256N counted along it

B1: Fluorescein-labelled GIV peptide (residues 1,671–1,701) (peptide)
peptide: {5,6‑carboxyfluorescein}-KTGSPGSEVVTLQQFLEESNKLTSVQIKSSS
notes: numbers on UniProt Q3V6T2-3; also called GBA motif of GIV; GEF motif of GIV; source: synthetic peptide
binds: [1] | [2] | [3] | [4] | [5]

B2: Fluorescein-labelled RGS12 GoLoco peptide (residues 1,185–1,221) (peptide)
peptide: {5,6‑carboxyfluorescein}-DEAEEFFELISKAQSNRADDQRGLLRKEDLVLPEFLR
notes: RGS12, GoLoco motif, residues 1,185–1,221; 'human' stands at the head of the list 'human GIV ..., DAPLE ... or RGS12'; read as applying to all three; also called GoLoco motif of RGS12; RGS12 GoLoco motif; source: synthetic peptide
binds: [6] | [2]

B3: GST-DAPLE (1,650–1,745) (domain or fragment, human, UniProt Q9P219 1650-1745, looked up)
chain: GTAPPYVGVRPCSASPSSEMVTLEEFLEESNRSSPTHDTPSCRDDLLSDYFRKASDPPAIGGQPGPPAKKEGAKMPTNFVAPTVKMAAPTSEGRPL
notes: DAPLE (dishevelled-associating protein with high frequency of leucines), human, residues 1,650–1,745, cloned from Kazusa's clone fh14721 (KIAA1509)
binds: [7] | [8] | [9] | [10]

B4: GST-GIV (residues 1,671–1,755, containing its GBA motif) (domain or fragment, human, UniProt Q3V6T2-3 1671-1755, looked up)
chain: KTGSPGSEVVTLQQFLEESNKLTSVQIKSSSQENLLDEVMKSLSVSSDFLGKDKPVSCGLARSVSGKTPGDFYDRRTTKPEFLRP
notes: Girdin), human, residues 1,671–1,755
binds: [7] | [8] | [9] | [10] | [11]

B5: GIV peptide, amino acids 1,671–1,696 (GIVpept) (peptide)
peptide: KTGSPGSEVVTLQQFLEESNKLTSVQ
notes: GIV (Girdin), human, residues 1,671–1,696; numbers on UniProt Q3V6T2-3; Made on p-methylbenzhydrylamine resin; also called GIV fragment 1,671–1,696; source: synthetic peptide
binds: [12]

B6: His-tagged human GIV residues 1,660–1,870 (GIV-CT) (domain or fragment, UniProt Q3V6T2-3 1660-1870, looked up)
chain: SETLESRHHKIKTGSPGSEVVTLQQFLEESNKLTSVQIKSSSQENLLDEVMKSLSVSSDFLGKDKPVSCGLARSVSGKTPGDFYDRRTTKPEFLRPGPRKTEDTYFISSAGKPTPGTQGKIKLVKESSLSRQSKDSNPYATLPRASSVISTAEGTTRRTSIHDFLTKDSRLPISVDSPPAAADSNTTAASNVDKVQESRNSKSRSREQQSS
notes: MALDI mass consistent with the tagged fragment lacking the initial methionine; source: E. coli BL21(DE3), pET28b, purified (Co2+ and Ni2+ columns, Superdex 200); not shown: His tag, N-terminal, kept
binds: [13]
